Source: article doi:10.1101/2021.02.16.431366

Biological target: mCherry-TRPV5 (rabbit) (UniProt Q9XSM3)
Assay: single molecule photobleaching counting

Sequence of mCherry-TRPV5 (rabbit) (Q9XSM3 whole entry): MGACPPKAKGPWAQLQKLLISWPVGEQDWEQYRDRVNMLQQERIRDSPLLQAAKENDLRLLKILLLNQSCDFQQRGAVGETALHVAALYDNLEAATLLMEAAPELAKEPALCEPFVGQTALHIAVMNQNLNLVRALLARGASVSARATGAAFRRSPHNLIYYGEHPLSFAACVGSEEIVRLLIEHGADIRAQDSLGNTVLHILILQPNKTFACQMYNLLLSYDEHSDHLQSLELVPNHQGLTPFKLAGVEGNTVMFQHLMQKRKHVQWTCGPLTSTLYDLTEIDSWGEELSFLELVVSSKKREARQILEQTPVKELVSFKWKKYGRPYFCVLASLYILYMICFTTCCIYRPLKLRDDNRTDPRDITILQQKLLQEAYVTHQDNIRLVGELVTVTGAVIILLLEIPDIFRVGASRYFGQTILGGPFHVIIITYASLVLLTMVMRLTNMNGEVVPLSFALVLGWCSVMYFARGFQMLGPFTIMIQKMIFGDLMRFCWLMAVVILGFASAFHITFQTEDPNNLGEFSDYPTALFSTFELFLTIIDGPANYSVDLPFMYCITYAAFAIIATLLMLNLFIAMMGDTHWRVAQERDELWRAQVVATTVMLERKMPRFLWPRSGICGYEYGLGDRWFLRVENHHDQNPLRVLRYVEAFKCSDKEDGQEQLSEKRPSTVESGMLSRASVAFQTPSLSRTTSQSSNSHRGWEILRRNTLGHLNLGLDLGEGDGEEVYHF

stoichiometry N (CaM molecules per TRPV5 tetramer): 2
Substance: CaM-eGFP (from UniProt P0DP29 1-149) (natural protein)
